Results on one molecule are retold here after patent US10314894B2, “Treatment of cardio-renal disease using PCSK6” (THE CLEVELAND CLINIC FOUNDATION, priority 2014, dated 2019).

One test concerns the target T1, corin variant Q568P (Homo sapiens, UniProt Q9Y5Q5, Q568P).
T1 construct: expressed in transfected cells; host or cells: HEK293
T1 sequence (Q9Y5Q5 1-1042 Q568P): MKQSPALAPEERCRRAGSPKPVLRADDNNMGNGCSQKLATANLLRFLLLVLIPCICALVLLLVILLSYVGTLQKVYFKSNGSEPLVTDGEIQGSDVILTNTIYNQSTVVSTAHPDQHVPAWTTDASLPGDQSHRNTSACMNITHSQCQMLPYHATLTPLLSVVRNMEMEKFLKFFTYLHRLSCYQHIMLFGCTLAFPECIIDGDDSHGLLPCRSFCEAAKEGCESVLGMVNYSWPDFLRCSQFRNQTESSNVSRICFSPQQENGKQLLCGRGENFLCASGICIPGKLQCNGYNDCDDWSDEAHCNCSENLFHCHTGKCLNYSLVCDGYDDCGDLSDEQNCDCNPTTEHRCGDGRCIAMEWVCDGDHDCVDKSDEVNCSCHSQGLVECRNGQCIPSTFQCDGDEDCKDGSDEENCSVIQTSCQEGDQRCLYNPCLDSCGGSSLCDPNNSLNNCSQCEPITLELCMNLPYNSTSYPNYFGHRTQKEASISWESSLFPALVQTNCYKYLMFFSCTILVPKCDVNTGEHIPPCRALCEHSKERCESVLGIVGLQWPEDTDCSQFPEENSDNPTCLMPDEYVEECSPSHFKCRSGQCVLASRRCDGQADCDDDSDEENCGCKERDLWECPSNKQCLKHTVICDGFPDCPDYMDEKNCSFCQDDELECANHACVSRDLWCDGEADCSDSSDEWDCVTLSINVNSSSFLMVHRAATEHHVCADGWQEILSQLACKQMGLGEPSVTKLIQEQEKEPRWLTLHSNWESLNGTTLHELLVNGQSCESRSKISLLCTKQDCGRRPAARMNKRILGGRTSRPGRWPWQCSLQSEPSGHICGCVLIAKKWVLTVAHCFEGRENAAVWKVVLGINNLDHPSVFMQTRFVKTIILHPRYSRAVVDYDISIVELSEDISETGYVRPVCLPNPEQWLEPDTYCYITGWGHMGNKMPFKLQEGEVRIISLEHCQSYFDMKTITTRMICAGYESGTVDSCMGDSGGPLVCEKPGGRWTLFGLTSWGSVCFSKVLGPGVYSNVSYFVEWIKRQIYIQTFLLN
Description: PCSK6-mediated corin activation in HEK293 cells, corin variant Q568P. Conditions: Western. The class given is cell-based. An excerpt: (§1) Plasmids expressing human corin WT and mutants R801A, S985A, T555I, Q568P, T555I/Q568P, K317E, S472G and R539C were reported previously. Dong, N. et al., J Biol Chem 289, 17909-17916 (2014); Knappe et al., J Biol Chem 278, 52363-52370 (2003); Wu et al., J Biol Chem 277, 16900-16905. (2002). Plasmids expressing human PCSK1-9 were made by cloning respective cDNAs into pcNDA3.1 vector. Recombinant corin and PCSK proteins encoded by these plasmids contained a C-terminal V5 or flag tag for protein detection in Western blotting.
(§2) HEK293 and HL-1 cells were transfected with corin or PCSK6 expression plasmids. After 48-72 h, cells were lysed in a buffer containing 25 mM Tris-HCl, pH 7.4, 150 mM NaCl, 1 mM EDTA, 1% (v/v) NP-40, and 1% (v/v) protease inhibitor cocktail. Recombinant corin and PCSK6 proteins were immunoprecipitated with an anti-V5 or anti-flag antibody. Western blotting was carried out to analyze corin expression and activation or PCSK6 expression with or without reducing agents. Percentage of corin activation (corin-p vs. corin fragments) was quantified by densitometric analysis of Western blots.

The next test has as its target T2, corin mutant R801A (Homo sapiens, UniProt Q9Y5Q5, R801A).
T2 construct: expressed in transfected cells; host or cells: HEK293
T2 sequence (Q9Y5Q5 1-1042 R801A): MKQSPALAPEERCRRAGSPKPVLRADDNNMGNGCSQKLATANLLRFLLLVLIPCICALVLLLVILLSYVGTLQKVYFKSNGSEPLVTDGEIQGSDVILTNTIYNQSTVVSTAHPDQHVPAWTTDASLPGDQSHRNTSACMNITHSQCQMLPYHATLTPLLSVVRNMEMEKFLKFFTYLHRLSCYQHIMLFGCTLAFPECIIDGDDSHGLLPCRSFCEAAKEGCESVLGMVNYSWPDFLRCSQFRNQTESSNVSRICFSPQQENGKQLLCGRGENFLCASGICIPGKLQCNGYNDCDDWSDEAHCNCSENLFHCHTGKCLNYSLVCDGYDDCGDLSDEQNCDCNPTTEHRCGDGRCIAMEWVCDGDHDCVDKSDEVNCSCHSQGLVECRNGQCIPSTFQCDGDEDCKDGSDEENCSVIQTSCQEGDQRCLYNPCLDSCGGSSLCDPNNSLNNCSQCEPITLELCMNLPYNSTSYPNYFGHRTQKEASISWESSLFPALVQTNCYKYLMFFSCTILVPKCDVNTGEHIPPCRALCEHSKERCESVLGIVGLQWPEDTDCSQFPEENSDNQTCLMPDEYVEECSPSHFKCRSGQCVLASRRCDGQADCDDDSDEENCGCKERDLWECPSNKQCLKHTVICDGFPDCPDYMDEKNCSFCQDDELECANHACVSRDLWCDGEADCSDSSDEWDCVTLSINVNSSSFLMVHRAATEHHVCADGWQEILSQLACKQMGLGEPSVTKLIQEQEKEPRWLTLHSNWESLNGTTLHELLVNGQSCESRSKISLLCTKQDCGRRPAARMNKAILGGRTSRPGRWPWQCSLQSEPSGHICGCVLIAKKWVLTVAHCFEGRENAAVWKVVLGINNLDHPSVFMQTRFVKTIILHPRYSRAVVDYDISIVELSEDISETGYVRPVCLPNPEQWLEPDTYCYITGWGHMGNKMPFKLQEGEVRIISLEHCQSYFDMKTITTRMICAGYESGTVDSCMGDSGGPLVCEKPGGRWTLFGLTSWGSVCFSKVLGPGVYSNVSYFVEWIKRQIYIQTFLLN
Description: PCSK6-mediated corin activation in HEK293 cells, corin mutant R801A (control). Particulars: corin mutant R801A lacking the cleavage site. The class given is cell-based.
Excerpt: as §1, §2

B1: proprotein convertase subtilisin/kexin-6 (protein, listed as Homo sapiens)
chain: MPPRAPPAPGPRPPPRAAAATDTAAGAGGAGGAGGAGGPGFRPLAPRPWRWLLLLALPAACSAPPPRPVYTNHWAVQVLGGPAEADRVAAAHGYLNLGQIGNLEDYYHFYHSKTFKRSTLSSRGPHTFLRMDPQVKWLQQQEVKRRVKRQVRSDPQALYFNDPIWSNMWYLHCGDKNSRCRSEMNVQAAWKRGYTGKNVVVTILDDGIERNHPDLAPNYDSYASYDVNGNDYDPSPRYDASNENKHGTRCAGEVAASANNSYCIVGIAYNAKIGGIRMLDGDVTDVVEAKSLGIRPNYIDIYSASWGPDDDGKTVDGPGRLAKQAFEYGIKKGRQGLGSIFVWASGNGGREGDYCSCDGYTNSIYTISVSSATENGYKPWYLEECASTLATTYSSGAFYERKIVTTDLRQRCTDGHTGTSVSAPMVAGIIALALEANSQLTWRDVQHLLVKTSRPAHLKASDWKVNGAGHKVSHFYGFGLVDAEALVVEAKKWTAVPSQHMCVAASDKRPRSIPLVQVLRTTALTSACAEHSDQRVVYLEHVVVRTSISHPRRGDLQIYLVSPSGTKSQLLAKRLLDLSNEGFTNWEFMTVHCWGEKAEGQWTLEIQDLPSQVRNPEKQGKLKEWSLILYGTAEHPYHTFSAHQSRSRMLELSAPELEPPKAALSPSQVEVPEDEEDYTAQSTPGSANILQTSVCHPECGDKGCDGPNADQCLNCVHFSLGSVKTSRKCVSVCPLGYFGDTAARRCRRCHKGCETCSSRAATQCLSCRRGFYHHQEMNTCVTLCPAGFYADESQKNCLKCHPSCKKCVDEPEKCTVCKEGFSLARGSCIPDCEPGTYFDSELIRCGECHHTCGTCVGPGREECIHCAKNFHFHDWKCVPACGEGFYPEEMPGLPHKVCRRCDENCLSCAGSSRNCSRCKTGFTQLGTSCITNHTCSNADETFCEMVKSNRLCERKLFIQFCCRTCLLAG
modifications: C-terminal FLAG tag
As to B1, the PCSK6-mediated activation cleavage result with corin variant Q568P is on record as “detected”; with corin mutant R801A, “no activation cleavage was detected”.
